Results from doi:10.64898/2025.12.11.693717.

How the values were obtained:
[1] = biological target: DCC I372R mutant, overexpressed in Cos7 cells (UniProt P70211); experiment: immunostaining of cells or tissue
[2] = biological target: Deleted in Colorectal Cancer (DCC), wild type, overexpressed in Cos7 cells (UniProt P70211); experiment: immunostaining of cells or tissue

Draxin mean fluorescence on DCC+ cells [1]: 0.72 | Draxin mean fluorescence on DCC+ cells [2]: 0.95
Substance: recombinant Draxin (ligand)
